Data published in PMC11058270, “Discovering a mitochondrion-localized BAHD acyltransferase involved in calystegine biosynthesis and engineering the production of 3β-tigloyloxytropane” (Nature Communications, 2024).

Key:
[1] = target: T1, PcICS (isobutyryl CoA synthetase) (Pseudomonas chlororaphis, UniProt Q5CD72); test: enzyme assay, MS detection of tigloyl-CoA; type: biochemical
T1 construct: gene acsA; purified recombinant protein; tag and host for purification not described in main text

[2] = target: T2, TS (3β-tigloyloxytropane synthase; AbTS) (Atropa belladonna, UniProt A0AAF1BX09); test: steady-state kinetics, LC-MS product analysis; type: biochemical; conditions: co-substrate 3β-tropanol; 50 mM glycine-NaOH pH 8.6, 30 °C
T2 construct: full-length codon-optimised CDS (TSopt) in pMAL-c5x, N-terminal MBP tag (cleavage not mentioned), E. coli BL21 (DE3), amylose resin
Text: (§1) steady-state kinetics, LC-MS product analysis on TS (3β-tigloyloxytropane synthase; AbTS)

[3] = system: CN1[C@@H]2CC[C@H]1C[C@H](O)C2; test: steady-state kinetics, LC-MS product analysis; type: biochemical, Atropa belladonna; conditions: acyl donor tigloyl-CoA, 50 mM glycine-NaOH pH 8.6, 30 °C
Text: as §1

[4] = system: C/C=C(\C)C(=O)SCCNC(=O)CCNC(=O)[C@H](O)C(C)(C)COP(=O)(O)OP(=O)(O)OC[C@H]1O[C@@H](n2cnc3c(N)ncnc32)[C@H](O)[C@@H]1OP(=O)(O)O; test: steady-state kinetics, LC-MS product analysis; type: biochemical, Atropa belladonna; conditions: co-substrate 3β-tropanol, 50 mM glycine-NaOH pH 8.6, 30 °C
Text: as §1

[5] = system: CC(=O)SCCNC(=O)CCNC(=O)[C@H](O)C(C)(C)COP(=O)(O)OP(=O)(O)OC[C@H]1O[C@@H](n2cnc3c(N)ncnc32)[C@H](O)[C@@H]1OP(=O)(O)O; test: steady-state kinetics, LC-MS product analysis; type: biochemical, Atropa belladonna; conditions: co-substrate 3β-tropanol, 50 mM glycine-NaOH pH 8.6, 30 °C
Text: as §1

[6] = system: CC(C)(COP(=O)(O)OP(=O)(O)OC[C@H]1O[C@@H](n2cnc3c(N)ncnc32)[C@H](O)[C@@H]1OP(=O)(O)O)[C@@H](O)C(=O)NCCC(=O)NCCSC(=O)c1ccccc1; test: steady-state kinetics, LC-MS product analysis; type: biochemical, Atropa belladonna; conditions: co-substrate 3β-tropanol, 50 mM glycine-NaOH pH 8.6, 30 °C
Text: as §1

| Compound | Km [3] | kcat [3] | kcat/Km [3] | Km [4] | kcat [4] | kcat/Km [4] | Km [6] | kcat [6] | kcat/Km [6] | also measured |
| --- | --- | --- | --- | --- | --- | --- | --- | --- | --- | --- |
| CC(C)(COP(=O)(O)OP(=O)(O)OC[C@H]1O[C@@H](n2cnc3c(N)ncnc32)[C@H](O)[C@@H]1OP(=O)(O)O)[C@@H](O)C(=O)NCCC(=O)NCCS [CoA] | – | – | – | – | – | – | – | – | – | enzyme assay, MS detection of tigloyl-CoA ([1]; co-substrate tiglic acid): purified PcICS catalyzed the synthesis of tigloyl-CoA from CoA and tiglic acid |
| CC(=O)SCCNC(=O)CCNC(=O)[C@H](O)C(C)(C)COP(=O)(O)OP(=O)(O)OC[C@H]1O[C@@H](n2cnc3c(N)ncnc32)[C@H](O)[C@@H]1OP(=O)(O)O [acetyl-CoA] | – | – | – | – | – | – | – | – | – | Km [2]: 90 ± 20 µM |
| CC(C)(COP(=O)(O)OP(=O)(O)OC[C@H]1O[C@@H](n2cnc3c(N)ncnc32)[C@H](O)[C@@H]1OP(=O)(O)O)[C@@H](O)C(=O)NCCC(=O)NCCSC(=O)c1ccccc1 [benzoyl-CoA] | – | – | – | – | – | – | – | – | – | Km [2]: 920 ± 580 µM |
| C/C=C(\C)C(=O)O [tiglic acid] | – | – | – | – | – | – | – | – | – | enzyme assay, MS detection of tigloyl-CoA ([1]; co-substrate CoA): purified PcICS catalyzed the synthesis of tigloyl-CoA from CoA and tiglic acid |
| TS (3β-tigloyloxytropane synthase; AbTS) (Atropa belladonna) | 360 ± 50 µM | 6.84 ± 0.3 s⁻¹ | 19000 ± 1660 M⁻¹ s⁻¹ | 20 ± 4 µM | 7.38 ± 0.25 s⁻¹ | 338000 ± 49100 M⁻¹ s⁻¹ | – | – | – | – |
| TS (3β-tigloyloxytropane synthase; AbTS) (Atropa belladonna; F46I) | 320 ± 60 µM | 1.44 ± 0.09 s⁻¹ | 4550 ± 594 M⁻¹ s⁻¹ | 410 ± 110 µM | 1.42 ± 0.17 s⁻¹ | 3590 ± 570 M⁻¹ s⁻¹ | 370 ± 90 µM | 0.04 ± 0.004 s⁻¹ | 99.3 ± 13.3 M⁻¹ s⁻¹ | Km [5]: 350 ± 120 µM; kcat [5]: 0.005 ± 0.0008 s⁻¹; kcat/Km [5]: 16.2 ± 3.42 M⁻¹ s⁻¹ |
| TS (3β-tigloyloxytropane synthase; AbTS) (Atropa belladonna; F46I/S40T) | – | – | – | 150 ± 20 µM | 2.27 ± 0.1 s⁻¹ | 14800 ± 1370 M⁻¹ s⁻¹ | 260 ± 80 µM | 0.08 ± 0.008 s⁻¹ | 305 ± 54.1 M⁻¹ s⁻¹ | – |
| TS (3β-tigloyloxytropane synthase; AbTS) (Atropa belladonna; S40T) | 320 ± 70 µM | 11.1 ± 0.81 s⁻¹ | 35200 ± 5480 M⁻¹ s⁻¹ | 20 ± 3 µM | 11.4 ± 0.34 s⁻¹ | 572000 ± 72300 M⁻¹ s⁻¹ | 840 ± 380 µM | 0.03 ± 0.006 s⁻¹ | 32.7 ± 6.77 M⁻¹ s⁻¹ | Km [5]: 70 ± 10 µM; kcat [5]: 0.09 ± 0.004 s⁻¹; kcat/Km [5]: 1190 ± 155 M⁻¹ s⁻¹ |
